B1: ZNF449 (parent)
chain: TLHQRTHTEERPFKCNYCGKSFRQ
B2: VTI1B (parent)
chain: NKLLLSIIILLELAILGGLVYYKF

Variants of: B1
Assay: protein stability index of a GFP-peptide fusion (GPS, HEK-293T) (PSI 1-6); higher = more stable
Conditions: c terminus: a fixed tail appended
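Note: lentivirally expressed fusions sorted by FACS into six bins by GFP to DsRed ratio, PSI derived from sequencing read proportions per bin multiplied by bin number.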

First: TLHQRTHTEERPFKCNYCGQSFRQ [K20Q]
Second: TLHQRTHTEERPFKCNYCGRSFRQ [K20R]
The protein stability index of the first is lower: 1.82 for the first, 3.28 for the second.

Compared with TLHQRTHTEERPFKCNYCGSSFRQ [K20S], TLHQRTHTEERPFKCNYCGTSFRQ [K20T] is higher in protein stability index: 2.12 for the first, 2.58 for the second.

Going from TLHQRTHTEERPFKCNYCGVSFRQ [K20V] to TLHQRTHTEERPFKCNYCGWSFRQ [K20W], the protein stability index falls from 2.41 to 1.88.

Going from TLHQRTHTEERPFKCNYCGYSFRQ [K20Y] to TLHQRTHTEERPFKCNYCGKAFRQ [S21A], the protein stability index rises from 1.9 to 1.92.

Going from TLHQRTHTEERPFKCNYCGKCFRQ [S21C] to TLHQRTHTEERPFKCNYCGKDFRQ [S21D], the protein stability index rises from 2.02 to 2.75.

First: TLHQRTHTEERPFKCNYCGKEFRQ [S21E]
Second: TLHQRTHTEERPFKCNYCGKFFRQ [S21F]
The protein stability index of the first is higher: 3.13 for the first, 1.68 for the second.

Compared with TLHQRTHTEERPFKCNYCGKGFRQ [S21G], TLHQRTHTEERPFKCNYCGKHFRQ [S21H] is higher in protein stability index: 1.82 for the first, 2.58 for the second.

Going from TLHQRTHTEERPFKCNYCGKIFRQ [S21I] to TLHQRTHTEERPFKCNYCGKKFRQ [S21K], the protein stability index rises from 2.26 to 2.32.

First: TLHQRTHTEERPFKCNYCGKLFRQ [S21L]
Second: TLHQRTHTEERPFKCNYCGKMFRQ [S21M]
The protein stability index of the first is higher: 3.6 for the first, 2.19 for the second.

First: TLHQRTHTEERPFKCNYCGKNFRQ [S21N]
Second: TLHQRTHTEERPFKCNYCGKPFRQ [S21P]
The protein stability index of the first is higher: 2.69 for the first, 2.15 for the second.

Going from TLHQRTHTEERPFKCNYCGKQFRQ [S21Q] to TLHQRTHTEERPFKCNYCGKRFRQ [S21R], the protein stability index rises from 2.27 to 2.38.

Going from TLHQRTHTEERPFKCNYCGKTFRQ [S21T] to TLHQRTHTEERPFKCNYCGKVFRQ [S21V], the protein stability index falls from 2.91 to 2.29.

First: TLHQRTHTEERPFKCNYCGKWFRQ [S21W]
Second: TLHQRTHTEERPFKCNYCGKSARQ [F22A]
The protein stability index of the first is lower: 2.29 for the first, 3.02 for the second.

Compared with TLHQRTHTEERPFKCNYCGKSCRQ [F22C], TLHQRTHTEERPFKCNYCGKSDRQ [F22D] is lower in protein stability index: 3.22 for the first, 3.12 for the second.

Compared with TLHQRTHTEERPFKCNYCGKSERQ [F22E], TLHQRTHTEERPFKCNYCGKSGRQ [F22G] is lower in protein stability index: 3.02 for the first, 2.35 for the second.

Going from TLHQRTHTEERPFKCNYCGKSHRQ [F22H] to TLHQRTHTEERPFKCNYCGKSIRQ [F22I], the protein stability index falls from 3.05 to 2.02.

Going from TLHQRTHTEERPFKCNYCGKSKRQ [F22K] to TLHQRTHTEERPFKCNYCGKSLRQ [F22L], the protein stability index falls from 3.37 to 1.82.

Compared with TLHQRTHTEERPFKCNYCGKSMRQ [F22M], TLHQRTHTEERPFKCNYCGKSNRQ [F22N] is higher in protein stability index: 2.28 for the first, 3.51 for the second.

Going from TLHQRTHTEERPFKCNYCGKSPRQ [F22P] to TLHQRTHTEERPFKCNYCGKSQRQ [F22Q], the protein stability index falls from 3.03 to 2.88.

First: TLHQRTHTEERPFKCNYCGKSRRQ [F22R]
Second: TLHQRTHTEERPFKCNYCGKSSRQ [F22S]
The protein stability index of the first is lower: 1.48 for the first, 2.85 for the second.

Compared with TLHQRTHTEERPFKCNYCGKSTRQ [F22T], TLHQRTHTEERPFKCNYCGKSVRQ [F22V] is higher in protein stability index: 2.49 for the first, 3.59 for the second.

Going from TLHQRTHTEERPFKCNYCGKSWRQ [F22W] to TLHQRTHTEERPFKCNYCGKSYRQ [F22Y], the protein stability index rises from 1.74 to 2.35.

Going from TLHQRTHTEERPFKCNYCGKSFAQ [R23A] to TLHQRTHTEERPFKCNYCGKSFCQ [R23C], the protein stability index rises from 2.69 to 4.7.

Compared with TLHQRTHTEERPFKCNYCGKSFDQ [R23D], TLHQRTHTEERPFKCNYCGKSFEQ [R23E] is higher in protein stability index: 3 for the first, 3.53 for the second.

First: TLHQRTHTEERPFKCNYCGKSFFQ [R23F]
Second: TLHQRTHTEERPFKCNYCGKSFGQ [R23G]
The protein stability index of the first is lower: 2.21 for the first, 2.27 for the second.

Going from TLHQRTHTEERPFKCNYCGKSFHQ [R23H] to TLHQRTHTEERPFKCNYCGKSFIQ [R23I], the protein stability index rises from 2.79 to 3.2.

Compared with TLHQRTHTEERPFKCNYCGKSFKQ [R23K], TLHQRTHTEERPFKCNYCGKSFLQ [R23L] is lower in protein stability index: 2.97 for the first, 2.4 for the second.

Compared with TLHQRTHTEERPFKCNYCGKSFMQ [R23M], TLHQRTHTEERPFKCNYCGKSFNQ [R23N] is lower in protein stability index: 2.8 for the first, 2.35 for the second.

Going from TLHQRTHTEERPFKCNYCGKSFPQ [R23P] to TLHQRTHTEERPFKCNYCGKSFQQ [R23Q], the protein stability index falls from 2.58 to 2.16.

Compared with TLHQRTHTEERPFKCNYCGKSFSQ [R23S], TLHQRTHTEERPFKCNYCGKSFTQ [R23T] is higher in protein stability index: 2.67 for the first, 2.7 for the second.

Going from TLHQRTHTEERPFKCNYCGKSFVQ [R23V] to TLHQRTHTEERPFKCNYCGKSFWQ [R23W], the protein stability index rises from 2.15 to 2.29.

First: TLHQRTHTEERPFKCNYCGKSFYQ [R23Y]
Second: TLHQRTHTEERPFKCNYCGKSFRA [Q24A]
The protein stability index of the first is higher: 2.72 for the first, 2.55 for the second.

First: TLHQRTHTEERPFKCNYCGKSFRC [Q24C]
Second: TLHQRTHTEERPFKCNYCGKSFRD [Q24D]
The protein stability index of the first is lower: 1.84 for the first, 2.24 for the second.

Going from TLHQRTHTEERPFKCNYCGKSFRE [Q24E] to TLHQRTHTEERPFKCNYCGKSFRF [Q24F], the protein stability index falls from 2.88 to 2.56.

Going from TLHQRTHTEERPFKCNYCGKSFRG [Q24G] to TLHQRTHTEERPFKCNYCGKSFRH [Q24H], the protein stability index falls from 2.62 to 2.12.

Compared with TLHQRTHTEERPFKCNYCGKSFRI [Q24I], TLHQRTHTEERPFKCNYCGKSFRL [Q24L] is higher in protein stability index: 1.68 for the first, 2.36 for the second.

Compared with TLHQRTHTEERPFKCNYCGKSFRM [Q24M], TLHQRTHTEERPFKCNYCGKSFRN [Q24N] is lower in protein stability index: 2.77 for the first, 2.27 for the second.

First: TLHQRTHTEERPFKCNYCGKSFRP [Q24P]
Second: TLHQRTHTEERPFKCNYCGKSFRR [Q24R]
The protein stability index of the first is higher: 2.87 for the first, 1.67 for the second.

First: TLHQRTHTEERPFKCNYCGKSFRS [Q24S]
Second: TLHQRTHTEERPFKCNYCGKSFRT [Q24T]
The protein stability index of the first is higher: 3.49 for the first, 2.75 for the second.

Going from TLHQRTHTEERPFKCNYCGKSFRV [Q24V] to TLHQRTHTEERPFKCNYCGKSFRW [Q24W], the protein stability index rises from 1.75 to 2.12.

Work on TLHQRTHTEERPFKCNYCGKSFRY [Q24Y] yielded a protein stability index of 3.2.

Variants of: B2
Assay: as above
Conditions: c terminus: a fixed tail appended

Going from AKLLLSIIILLELAILGGLVYYKF [N1A] to CKLLLSIIILLELAILGGLVYYKF [N1C], the protein stability index rises from 3.04 to 3.66.

Going from DKLLLSIIILLELAILGGLVYYKF [N1D] to EKLLLSIIILLELAILGGLVYYKF [N1E], the protein stability index rises from 3 to 4.24.

Compared with FKLLLSIIILLELAILGGLVYYKF [N1F], GKLLLSIIILLELAILGGLVYYKF [N1G] is higher in protein stability index: 2.82 for the first, 3.29 for the second.

Compared with HKLLLSIIILLELAILGGLVYYKF [N1H], IKLLLSIIILLELAILGGLVYYKF [N1I] is lower in protein stability index: 3.67 for the first, 2.97 for the second.

Compared with KKLLLSIIILLELAILGGLVYYKF [N1K], LKLLLSIIILLELAILGGLVYYKF [N1L] is higher in protein stability index: 1.85 for the first, 2.74 for the second.

First: MKLLLSIIILLELAILGGLVYYKF [N1M]
Second: PKLLLSIIILLELAILGGLVYYKF [N1P]
The protein stability index of the first is higher: 2.75 for the first, 1.77 for the second.

For QKLLLSIIILLELAILGGLVYYKF [N1Q], the protein stability index was 2.12.

Source: the supplement of paper PMC10567573
